Experimental findings from the supplement of paper PMC12338614 are described below.

± gives the uncertainty stated by the source.

First the molecules themselves.
B1: library; numbered along this chain (parent)
chain: MEVVDPQQLGMFTEGELMSVGMDTFIHRIDSTEVIYQPRRKRAKLIGKYLMGDLLGEGSYGKVKEVLDSETLCRRAVKILKKKKLRRIPNGEANVKKEIQLLRRLRHKNVIQLVDVLYNEEKQKMYMVMEYCVCGMQEMLDSVPEKRFPVCQAHGYFCQLIDGLEYLHSQGIVHKDIKPGNLLLTTGGTLKISDLGVAEALHPFAADDTCRTSQGSPAFQPPEIANGLDTFSGFKVDIWSAGVTLYNITTGLYPFEGDNIYKLFENIGKGSYAIPGDCGPPLSDLLKGMLEYEPAKRFSIRQIRQHSWFRKKHPPAEAPVPIPPSPDTKDRWRSMTVVPYLEDLHGADEDEDLFDIEDDIIYTQDFTVPGQVPEEEASHNGQRRGLPKAVCMNGTEAAQLSTKSRAEGRAPNPARKACSASSKIRRLSACKQQ

Variants of B1 are the subject of the data set. Nature of the data set: STK11 functional score (HeLa growth suppression), rescaled enrichment; synonymous median = 1, nonsense median = 0 (normalised score). Particulars: with HeLa; variant type: missense. The procedure, abridged: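 The functional score takes the post/pre-selection log ratio, corrects it to wild type, rescales it to synonymous and nonsense medians, and merges it over codons and replicate transfections, with error from bootstrapping. Counts came from tiled gDNA amplicons sequenced on NextSeq (~2 million reads per tile). The libraries were POPCode codon-randomised, codon-optimised STK11 integrated by Bxb1 at an AAVS1 landing pad in HeLa, three regions with three transfections each.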
Consider MEVVDPQQLGMFTEGELMSVGMDTFIHRIDSTEVIYQPRRKRAKLIGKYLMGDLLGEGSYGKVKEVLDSETLCRRAVKILKKKKLRRIPNGEANVKKEIQLLRRLRHKNVIQLVDVLYNEEKQKMYMVMEYCVCGMQEMLDSVPEKRFPVCQAHGYFCQLIDGLEYLHSQGIVHKDIKPGNLLLTTGGTLKISDLGVAEALHPFAADDTCRTSQGSPAFQPPEIANGLDTFSGFKVDIWSAGVTLYNITTGYYPFEGDNIYKLFENIGKGSYAIPGDCGPPLSDLLKGMLEYEPAKRFSIRQIRQHSWFRKKHPPAEAPVPIPPSPDTKDRWRSMTVVPYLEDLHGADEDEDLFDIEDDIIYTQDFTVPGQVPEEEASHNGQRRGLPKAVCMNGTEAAQLSTKSRAEGRAPNPARKACSASSKIRRLSACKQQ [L252Y], for which the STK11 functional score was determined as 0.274 ± 0.59.

For MEVVDPQQLGMFTEGELMSVGMDTFIHRIDSTEVIYQPRRKRAKLIGKYLMGDLLGEGSYGKVKEVLDSETLCRRAVKILKKKKLRRIPNGEANVKKEIQLLRRLRHKNVIQLVDVLYNEEKQKMYMVMEYCVCGMQEMLDSVPEKRFPVCQAHGYFCQLIDGLEYLHSQGIVHKDIKPGNLLLTTGGTLKISDLGVAEALHPFAADDTCRTSQGSPAFQPPEIANGLDTFSGFKVDIWSAGVTLYNITTGLGPFEGDNIYKLFENIGKGSYAIPGDCGPPLSDLLKGMLEYEPAKRFSIRQIRQHSWFRKKHPPAEAPVPIPPSPDTKDRWRSMTVVPYLEDLHGADEDEDLFDIEDDIIYTQDFTVPGQVPEEEASHNGQRRGLPKAVCMNGTEAAQLSTKSRAEGRAPNPARKACSASSKIRRLSACKQQ [Y253G], the STK11 functional score amounted to 0.758 ± 0.17.

Turning to MEVVDPQQLGMFTEGELMSVGMDTFIHRIDSTEVIYQPRRKRAKLIGKYLMGDLLGEGSYGKVKEVLDSETLCRRAVKILKKKKLRRIPNGEANVKKEIQLLRRLRHKNVIQLVDVLYNEEKQKMYMVMEYCVCGMQEMLDSVPEKRFPVCQAHGYFCQLIDGLEYLHSQGIVHKDIKPGNLLLTTGGTLKISDLGVAEALHPFAADDTCRTSQGSPAFQPPEIANGLDTFSGFKVDIWSAGVTLYNITTGLDPFEGDNIYKLFENIGKGSYAIPGDCGPPLSDLLKGMLEYEPAKRFSIRQIRQHSWFRKKHPPAEAPVPIPPSPDTKDRWRSMTVVPYLEDLHGADEDEDLFDIEDDIIYTQDFTVPGQVPEEEASHNGQRRGLPKAVCMNGTEAAQLSTKSRAEGRAPNPARKACSASSKIRRLSACKQQ [Y253D], the STK11 functional score was 0.768 ± 0.37.

For MEVVDPQQLGMFTEGELMSVGMDTFIHRIDSTEVIYQPRRKRAKLIGKYLMGDLLGEGSYGKVKEVLDSETLCRRAVKILKKKKLRRIPNGEANVKKEIQLLRRLRHKNVIQLVDVLYNEEKQKMYMVMEYCVCGMQEMLDSVPEKRFPVCQAHGYFCQLIDGLEYLHSQGIVHKDIKPGNLLLTTGGTLKISDLGVAEALHPFAADDTCRTSQGSPAFQPPEIANGLDTFSGFKVDIWSAGVTLYNITTGLCPFEGDNIYKLFENIGKGSYAIPGDCGPPLSDLLKGMLEYEPAKRFSIRQIRQHSWFRKKHPPAEAPVPIPPSPDTKDRWRSMTVVPYLEDLHGADEDEDLFDIEDDIIYTQDFTVPGQVPEEEASHNGQRRGLPKAVCMNGTEAAQLSTKSRAEGRAPNPARKACSASSKIRRLSACKQQ [Y253C], the STK11 functional score turned out to be 0.457 ± 0.26.

As for MEVVDPQQLGMFTEGELMSVGMDTFIHRIDSTEVIYQPRRKRAKLIGKYLMGDLLGEGSYGKVKEVLDSETLCRRAVKILKKKKLRRIPNGEANVKKEIQLLRRLRHKNVIQLVDVLYNEEKQKMYMVMEYCVCGMQEMLDSVPEKRFPVCQAHGYFCQLIDGLEYLHSQGIVHKDIKPGNLLLTTGGTLKISDLGVAEALHPFAADDTCRTSQGSPAFQPPEIANGLDTFSGFKVDIWSAGVTLYNITTGLLPFEGDNIYKLFENIGKGSYAIPGDCGPPLSDLLKGMLEYEPAKRFSIRQIRQHSWFRKKHPPAEAPVPIPPSPDTKDRWRSMTVVPYLEDLHGADEDEDLFDIEDDIIYTQDFTVPGQVPEEEASHNGQRRGLPKAVCMNGTEAAQLSTKSRAEGRAPNPARKACSASSKIRRLSACKQQ [Y253L], the STK11 functional score is 1.27 ± 0.12.

For the variant MEVVDPQQLGMFTEGELMSVGMDTFIHRIDSTEVIYQPRRKRAKLIGKYLMGDLLGEGSYGKVKEVLDSETLCRRAVKILKKKKLRRIPNGEANVKKEIQLLRRLRHKNVIQLVDVLYNEEKQKMYMVMEYCVCGMQEMLDSVPEKRFPVCQAHGYFCQLIDGLEYLHSQGIVHKDIKPGNLLLTTGGTLKISDLGVAEALHPFAADDTCRTSQGSPAFQPPEIANGLDTFSGFKVDIWSAGVTLYNITTGLFPFEGDNIYKLFENIGKGSYAIPGDCGPPLSDLLKGMLEYEPAKRFSIRQIRQHSWFRKKHPPAEAPVPIPPSPDTKDRWRSMTVVPYLEDLHGADEDEDLFDIEDDIIYTQDFTVPGQVPEEEASHNGQRRGLPKAVCMNGTEAAQLSTKSRAEGRAPNPARKACSASSKIRRLSACKQQ [Y253F], the STK11 functional score came out at 0.587 ± 0.17.

Turning to MEVVDPQQLGMFTEGELMSVGMDTFIHRIDSTEVIYQPRRKRAKLIGKYLMGDLLGEGSYGKVKEVLDSETLCRRAVKILKKKKLRRIPNGEANVKKEIQLLRRLRHKNVIQLVDVLYNEEKQKMYMVMEYCVCGMQEMLDSVPEKRFPVCQAHGYFCQLIDGLEYLHSQGIVHKDIKPGNLLLTTGGTLKISDLGVAEALHPFAADDTCRTSQGSPAFQPPEIANGLDTFSGFKVDIWSAGVTLYNITTGLEPFEGDNIYKLFENIGKGSYAIPGDCGPPLSDLLKGMLEYEPAKRFSIRQIRQHSWFRKKHPPAEAPVPIPPSPDTKDRWRSMTVVPYLEDLHGADEDEDLFDIEDDIIYTQDFTVPGQVPEEEASHNGQRRGLPKAVCMNGTEAAQLSTKSRAEGRAPNPARKACSASSKIRRLSACKQQ [Y253E], the STK11 functional score stood at 1 ± 0.41.
